Data as given in paper PMC9855569, “Construction of Bi-Enzyme Self-Assembly Clusters Based on SpyCatcher/SpyTag for the Efficient Biosynthesis of (R)-Ethyl 2-hydroxy-4-phenylbutyrate” (Biomolecules, 2023).

Substrate: CCOC(=O)C(=O)CCc1ccccc1
Experiment: purified protein
Assay type: biochemical, Lodderomyces parapsilosis
Details: apparent constant, free enzymes (CpCR with GDH), NADPH co-substrate, pH 7.0, 30 °C, OPBE 10-50 mM

B1: CpCR (Lodderomyces parapsilosis) (protein)
chain: MTKAVPDKFQGFAVSDPKNWNRPKLASYERKQINPHDVVLKNEVCGLCYSDIHTLSAGWQPLQRDNLVVGHEIIGEVIAVGDEVTEFKVGDRVGIGAASSSCRSCQRCDSDNEQYCKQGAATYNSKDVRSNNYVTQGGYSSHSIADEKFVFAIPEDLPSSYGAPLMCAGITVFSPLIRNLGLDARGKNVGIIGIGGLGHLALQFANAMGANVTAFSRSSSKKEQAMKLGAHDFVATGEDKTWYKNYDDHFDFILNCASGIDGLNLSEYLSTLKVDKKFVSVGLPPSEDKFEVSPFTFLQQGASFGSSLLGSKTEVKEMLNLAAKHNVRPMIEEVPISEENCAKALDRCHAGDVRYRFVFTDFDKAFKA
notes: full length, 6xHis tag, recombinant in E. coli BL21(DE3), 41 kDa; free (unassembled) enzyme, in the free bi-enzyme system with GDH
Km: 23.94 mM
kcat: 1.76 s⁻¹
kcat/Km: 74 M⁻¹ s⁻¹
